Laboratory results as given in patent US20240409639A1 (published 2024).

Tests used:
[1] = molecular target: ILT4 HIS; assay: BLI (Octet)
[2] = molecular target: FcγRI; assay: BLI (Octet)
[3] = molecular target: PD-1 HIS; assay: BLI (Octet)
[4] = molecular target: FcγRIIIa; assay: BLI (Octet)
[5] = molecular target: human FcRn; assay: BLI (Octet); pH 6.0
[6] = molecular target: human FcRn; assay: BLI (Octet); pH 7.2

- Kd [1]: 0.305 nM
- Kd [2]: 1380 nM
- Kd [3]: 0.063 nM
- Kd [4]: 4910 nM
- Kd [5]: 2.99 nM
- Kd [6]: 114 nM
B1: CDX-585 (bispecific antibody)
heavy: QVQLVQSGAEVVKPGASVKISCKASGYTFTDYVMHWVRQAPGQSLEWMGVISTYHIPAVYNQKFKGKATMTVDTSTSTVYLELSSLRSEDTAVYYCAREVYGESYYFDVWGQGTTVTVSSASTKGPSVFPLAPSSKSTSGGTAALGCLVKDYFPEPVTVSWNSGALTSGVHTFPAVLQSSGLYSLSSVVTVPSSSLGTQTYICNVNHKPSNTKVDKKVEPKSCDKTHTCPPCPAPEAQGGPSVFLFPPKPKDTLYITREPEVTCVVVDVSHEDPEVKFNWYVDGVEVHNAKTKPREEQYNSTYRVVSVLTVLHQDWLNGKEYKCQVSNKALPAPIEKTISKAKGQPREPQVYTLPPSRDELTKNQVSLTCLVKGFYPSDIAVEWESNGQPENNYKTTPPVLDSDGSFFLYSKLTVDKSRWQQGNVFSCSVMHEALHNHYTQKSLSLSPGKGSSGGGGSDIQMTQSPSSLSASVGDRVTITCRASENIYSYLAWYQQKPGKAPKFLVYNADTLAEGVPSRFSGSGSGTDFTLTISSLQPEDFATYYCQHHYGTPFTFGCGTKLEIKGGGGSGGGGSGGGGSGGGGSQVQLVQSGAEVKKPGASVKVSCKASGYSFTGYTMHWVRQAPGQCLEWMGLINPYTGGTDYNQKFQGRVTMTVDRSTSTAYMELSSLRSEDTAVYYCARERPGGSQFIYYYALDYWGQGTTVTVSS
light: DIVMTQTPLSLPVTPGEPASISCRSSQSIVHSAGNTYLEWYLQKPGQSPQLLIYKVSNRFSGVPDRFSGSGSGTDFTLKISRVEAEDVGVYYCFQGSHVPYTFGGGTKVEIKRTVAAPSVFIFPPSDEQLKSGTASVVCLLNNFYPREAKVQWKVDNALQSGNSQESVTEQDSKDSTYSLSSTLTLSKADYEKHKVYACEVTHQGLSSPVTKSFNRGEC
